Sequences and labels used below:
B4: full-length Mdm36 (residues 1-579) (natural protein, Saccharomyces cerevisiae, UniProt Q06820 1-579, looked up)
chain: MDENGTVKPGYELKGLNSGNSRSNMDKDPIVSKFHRAGLNDSADEEDTDINGNRNTSWITSMISEEKRKVEGKSMLNDEEDLHLSKATLNKCDALVKILADIIKLEFVIHQSWYIRSLHKSVLIQFEVETSGGNKNSAGDSGDDDDDNHNGNLDDSFYKDLSLKCIKKCEKSSLALESLSRDIDQIRDFIMSNTIEDNRVDRLLQNSMTLLLECWIYSMKRLRRLRMKIAGIFVRSKLLLIDHELVTIWHFLQEQNEHETVNNENELKLAETIKSYRAFIKIFIQQLEDSESGSPSSSLFEECLHVFLDIESMYNSLNLNWLLNENKALQERLLSPSSTSENDHTNNLPVIDETKEIEDISSFVNSIVDASMLTHDLTPINSSDSDNLSNGEIDRLDGRRLSSSTSDMSLMMQRTSLQKQLPSLLTAFNNARRLEQELQNACKVNDNKHSTKDTDSNIRRNEHAMSSSVSSIISQNSTLASPSPPMSSSFISTAPSQSSSRMSTLPLSPSSSLLESQSQTLKNNMSQWLNQSRSGLNGTKLIPTNHIGFHSNVLNTLYGIGGGPVSKSYKSNQPSSQNT

Data set [1] addresses B4. In words: ITC. (In ITC the heat of successive injections is recorded.)
The data set “SEC-MALS” concerns the molecule itself. In words: SEC-MALS.
For data set [2], the target named is B4. The experiment in a line: SEC. In general terms: In gel filtration, larger molecules generally elute earlier.

B1: coiled-coil domain of Num1 (residues 97-294) (domain or fragment, Saccharomyces cerevisiae, UniProt Q00402 97-294, looked up)
chain: MNFTLELSENLLVECRKLQSSNEAKNEQIKSLKQIKESLSDKIEELTNQKKSFMKELDSTKDLNWDLESKLTNLSMECRQLKELKKKTEKSWNDEKESLKLLKTDLEILTLTKNGMENDLSSQKLHYDKEISELKERILDLNNENDRLLISVSDLTSEINSLQSNRTERIKIQKQLDDAKASISSLKRKVQKKYYQKQ
Take B1: in data set [1], the Kd is 121 nM and the “stoichiometry N” value is 1 Num1CC per Mdm36 (1:1). In addition, the “stoichiometry N” value in the data set “SEC-MALS” was found to be 2.

B2: Num1 (97-175) (domain or fragment, Saccharomyces cerevisiae, UniProt Q00402 97-175, looked up)
chain: MNFTLELSENLLVECRKLQSSNEAKNEQIKSLKQIKESLSDKIEELTNQKKSFMKELDSTKDLNWDLESKLTNLSMECR
As for B2, the binding result in data set [2] is “binds”.

B3: Num1 (97-195), N-terminal half of Num1CC (domain or fragment, Saccharomyces cerevisiae, UniProt Q00402 97-195, looked up)
chain: MNFTLELSENLLVECRKLQSSNEAKNEQIKSLKQIKESLSDKIEELTNQKKSFMKELDSTKDLNWDLESKLTNLSMECRQLKELKKKTEKSWNDEKESL
As to B3, in data set [2], the binding result is recorded as “binds”. Take B4: the “stoichiometry N” value in “SEC-MALS” came out at 2.

In general, Kd refers to the free concentration of one partner at which half of the binding sites on the other are occupied at equilibrium, for simple one-to-one binding. The low end stands for a tighter complex, the high end for a looser complex. Usually stoichiometry N stands for the number of molecules, sites or subunits per partner or assembly.
